From paper PMC9357639 come the findings set out here.

The target of experiment [1] is STAT3 (UniProt P40763). Nature of the experiment: size exclusion chromatography, fractions immunoblotted. Conditions: sites T622. (In general: SEC sorts molecules by how far they enter the pores of the column.)
The target in experiment [2] is STAT3 (UniProt P40763). As to the kind of experiment: anti-Flag IP of purified Flag-STAT3 and GST-STAT3. Conditions: reference: wild type GST- and Flag-STAT3; sites T622.
Experiment [3] has as its target STAT3 (UniProt P40763). Nature of the experiment: anti-Flag co-IP, Flag-STAT3 with HA-STAT3. Conditions: reference: wild type STAT3; sites T622.

Chain of STAT3 (P40763 whole entry, change not shown): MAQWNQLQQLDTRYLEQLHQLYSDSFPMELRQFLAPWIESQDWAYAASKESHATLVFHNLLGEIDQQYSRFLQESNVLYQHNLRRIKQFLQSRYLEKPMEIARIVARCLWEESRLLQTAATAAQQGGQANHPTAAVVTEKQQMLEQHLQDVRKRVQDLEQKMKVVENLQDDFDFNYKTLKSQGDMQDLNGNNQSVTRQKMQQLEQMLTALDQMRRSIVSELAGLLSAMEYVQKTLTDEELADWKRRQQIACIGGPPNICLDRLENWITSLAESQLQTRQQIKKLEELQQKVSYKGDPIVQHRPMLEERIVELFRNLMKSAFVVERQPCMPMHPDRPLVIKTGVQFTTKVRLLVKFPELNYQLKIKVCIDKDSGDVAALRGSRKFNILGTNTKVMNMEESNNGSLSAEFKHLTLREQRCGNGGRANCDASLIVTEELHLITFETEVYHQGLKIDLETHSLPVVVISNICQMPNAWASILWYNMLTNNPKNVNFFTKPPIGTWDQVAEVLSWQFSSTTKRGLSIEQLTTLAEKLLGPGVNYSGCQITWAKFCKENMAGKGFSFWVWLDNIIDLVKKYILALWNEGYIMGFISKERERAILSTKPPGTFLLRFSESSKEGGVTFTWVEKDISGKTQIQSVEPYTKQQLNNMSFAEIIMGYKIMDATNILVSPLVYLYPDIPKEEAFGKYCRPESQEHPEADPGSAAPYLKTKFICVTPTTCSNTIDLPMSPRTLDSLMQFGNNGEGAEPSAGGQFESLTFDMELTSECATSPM

Take “STAT3 (from UniProt P40763) Flag-STAT3 T622A”: the “binding against the reference” value with STAT3 [1] (reference: wild type Flag-STAT3) is listed as “stronger”.

Regarding “STAT3 (from UniProt P40763) T622A GST- and Flag-STAT3”, the “binding against the reference” value with STAT3 [2] is recorded as “stronger”.

STAT3 (from UniProt P40763) STAT3 T622A: the “binding against the reference” value with STAT3 [3] is given as “stronger”.

Consider “STAT3 (from UniProt P40763) His-MST2 treated”, for which, in the experiment with STAT3 [1] (reference: untreated WT Flag-STAT3), the “binding against the reference” value is given as “same”.
